Starred links: 1 amine or outer side, 2 acyl side, 3 side chain; linkers in the order of their positions; H or OH if unused. Non-standard residues stand in square brackets, D forms with d. No end group written: not given here. NMe2F‑APPA = N-methyl-2-amino-5-(2-fluorophenyl)pentanoic acid, CN([C@@H](CCCc1ccccc1F)C(=O)[*:2])[*:1]; 2,4‑diF‑APPA = 2-amino-5-(2,4-difluorophenyl)pentanoic acid, O=C([C@H](CCCc1ccc(F)cc1F)N[*:1])[*:2]; AMCB = 2-amino-5-(4-chloro-2-methylphenyl)pentanoic acid, Cc1cc(Cl)ccc1CCC[C@H](N[*:1])C(=O)[*:2]; ACPP = 2-amino-5-(3-chlorophenyl)pentanoic acid, O=C([C@H](CCCc1cccc(Cl)c1)N[*:1])[*:2]; 2Cl,4OMe‑APPA = 2-amino-5-(2-chloro-4-methoxyphenyl)pentanoic acid; 2CF3‑APPA = 2-amino-5-(2-(trifluoromethyl)phenyl)pentanoic acid; Bip(2'-Et-4'-OMe) = CCc1cc(OC)ccc1-c1ccc(C[C@H](N)C(=O)O)cc1; Leu(5,5,5,5',5',5'-F6) = N[C@@H](CC(C(F)(F)F)C(F)(F)F)C(=O)O; Nva(5-(3,5-Me2Ph)) = Cc1cc(C)cc(CCC[C@H](N)C(=O)O)c1; 2Cl‑APPA = 2-amino-5-(2-chlorophenyl)pentanoic acid; 2F‑APPA = 2-amino-5-(2-fluorophenyl)pentanoic acid; αMePhe(2-F) = C[C@](N)(Cc1ccccc1F)C(=O)O; Phe(2-F) = N[C@@H](Cc1ccccc1F)C(=O)O; NMeBip(OMe) = N-methylated Bip(OMe); hhPhe = N[C@@H](CCCc1ccccc1)C(=O)O; NMeD = CN[C@@H](CC(=O)O)C(=O)O; aThr = C[C@H](O)[C@H](N)C(=O)O; αMeP = C[C@@]1(C(=O)O)CCCN1; NMeAPPA = not defined here; CNB = not defined here; Aib = CC(C)(N)C(=O)O
What was measured:
human GLP-1 receptor = human GLP-1 receptor (human, UniProt P43220 24-463); experiment: cell-based or functional assay
human glucagon receptor = human glucagon receptor (human, UniProt P47871 26-477); experiment: cell-based or functional assay

human GLP-1 receptor, sequence (P43220 24-463): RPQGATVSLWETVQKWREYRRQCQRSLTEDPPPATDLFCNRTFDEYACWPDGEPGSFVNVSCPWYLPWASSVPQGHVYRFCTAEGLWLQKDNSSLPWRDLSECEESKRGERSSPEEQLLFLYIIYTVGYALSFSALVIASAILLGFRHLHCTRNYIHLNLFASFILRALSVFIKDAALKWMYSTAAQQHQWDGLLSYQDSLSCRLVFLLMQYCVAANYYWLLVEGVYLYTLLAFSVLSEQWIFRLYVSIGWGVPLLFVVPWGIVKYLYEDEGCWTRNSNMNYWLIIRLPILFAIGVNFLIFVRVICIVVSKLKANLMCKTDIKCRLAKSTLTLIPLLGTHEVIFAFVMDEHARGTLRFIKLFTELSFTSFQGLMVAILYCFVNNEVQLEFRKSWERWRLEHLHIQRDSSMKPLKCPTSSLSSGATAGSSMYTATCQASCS

Binder | cAMP release, % activity, 1 nM (human GLP-1 receptor) [%] | cAMP release, % activity, 10 nM (human GLP-1 receptor) [%] | cAMP release, % activity, 100 nM (human GLP-1 receptor) [%] | cAMP release, % activity, 1 µM (human GLP-1 receptor) [%] | cAMP release, % activity, 10 µM (human GLP-1 receptor) [%] | inhibition of cAMP production, 1 nM (human glucagon receptor) [pmol/ml/µg prt] | inhibition of cAMP production, 10 nM (human glucagon receptor) [pmol/ml/µg prt] | inhibition of cAMP production, 100 nM (human glucagon receptor) [pmol/ml/µg prt] | inhibition of cAMP production, 1 µM (human glucagon receptor) [pmol/ml/µg prt] | inhibition of cAMP production, 10 µM (human glucagon receptor) [pmol/ml/µg prt]
H[Aib][CNB]GTFTSD[Bip(2'-Et-4'-OMe)][2Cl,4OMe‑APPA] (reading uncertain) [Seq. ID. No. 84: H-Aib-(CNB)-GTFTSD-Bip(OMe)-(2Cl,4OMe-APPA)] | 38 | 77 | 85 | 94 | 97 | 4 | 2 | 0 | 0 | 0
HSQGTFTSD[Bip(2'-Et-4'-OMe)][2CF3‑APPA] [Seq. ID. No. 47: HSQGTFTSD-Bip(OMe)-(2CF3-APPA)] | 55 | 89 | 93 | 99 | 99 |  |  |  |  | 
H[Aib]QGTFTSD[Bip(2'-Et-4'-OMe)][2,4‑diF‑APPA] [Seq. ID. No. 62: H-Aib-QGTFTSD-Bip(OMe)-(2,4-diF-APPA)] | 38 | 78 | 86 | 95 | 98 |  |  |  |  | 
H[Aib][CNB]G[aThr][αMePhe(2-F)]TSD[Bip(2'-Et-4'-OMe)][2F‑APPA] (reading uncertain) [Seq. ID. No. 112: H-Aib-(CNB)-G-T(allo)-(α-Me-2F-Phe)-TSD-Bip(OMe)-(2F-APPA)] | 39 | 81 | 89 | 96 | 99 | 6 | 5 | 2 | 0 | 0
H[Aib]QGTFTSD[Bip(2'-Et-4'-OMe)][2Cl,4OMe‑APPA] [Seq. ID. No. 68: H-Aib-QGTFTSD-Bip(OMe)-(2Cl, 4OMe-APPA)] | 39 | 80 | 88 | 96 | 99 |  |  |  |  | 
HSQGTFTSD[Bip(2'-Et-4'-OMe)][2Cl‑APPA] [Seq. ID. No. 50: HSQGTFTSD-Bip(OMe)-(2Cl-APPA)] | 60 | 92 | 98 | 99 | 99 |  |  |  |  | 
H[Aib][CNB]G[aThr][αMePhe(2-F)]TSD[Bip(2'-Et-4'-OMe)][hhPhe] (reading uncertain) [Seq. ID. No. 110: H-Aib-(CNB)-G-T(allo)-(α-Me-2F-Phe)-TSD-Bip(OMe)-(APPA)] | 38 | 77 | 85 | 94 | 97 | 18 | 16 | 12 | 8 | 6
H[Aib]QGT[αMePhe(2-F)]TSD[Bip(2'-Et-4'-OMe)][ACPP] [Seq. ID. No. 39: H-Aib-QGT-(α-Me-2F-Phe)-TSD-Bip(OMe)-(ACPP)] | 40 | 81 | 87 | 95 | 98 |  |  |  |  | 
H[αMeP]QGTFTSD[Bip(2'-Et-4'-OMe)][ACPP] [Seq. ID. No. 11: H-(α-Me-Pro)-QGTFTSD-Bip(OMe)-(ACPP)] | 99 | 99 | 99 | 99 | 99 | 3 | 0 | 0 | 0 | 0
H[Aib][CNB]GTFTSD[Bip(2'-Et-4'-OMe)][AMCB] (reading uncertain) [Seq. ID. No. 32: H-Aib-(CNB)-GTFTSD-Bip(OMe)-(AMCB)] | 39 | 80 | 88 | 96 | 99 |  |  |  |  | 
H[Aib]QGT[Phe(2-F)]TSD[Bip(2'-Et-4'-OMe)][Nva(5-(3,5-Me2Ph))] [Seq. ID. No. 42: H-Aib-QGT-(2F-Phe)-TSD-Bip(OMe)-(ADMP)] | 39 | 81 | 89 | 96 | 99 |  |  |  |  | 

The next lines start with the values.

cAMP release, % activity, 1 nM (human GLP-1 receptor) [%] | cAMP release, % activity, 10 nM (human GLP-1 receptor) [%] | cAMP release, % activity, 100 nM (human GLP-1 receptor) [%] | cAMP release, % activity, 1 µM (human GLP-1 receptor) [%] | cAMP release, % activity, 10 µM (human GLP-1 receptor) [%] | inhibition of cAMP production, 1 nM (human glucagon receptor) [pmol/ml/µg prt] | inhibition of cAMP production, 10 nM (human glucagon receptor) [pmol/ml/µg prt] | inhibition of cAMP production, 100 nM (human glucagon receptor) [pmol/ml/µg prt] | inhibition of cAMP production, 1 µM (human glucagon receptor) [pmol/ml/µg prt] | inhibition of cAMP production, 10 µM (human glucagon receptor) [pmol/ml/µg prt] | Binder
82 | 87 | 92 | 99 | 99 | 4 | 2 | 0 | 0 | 0 | H[Aib][CNB]G[aThr][αMePhe(2-F)][aThr]SD[Bip(2'-Et-4'-OMe)][hhPhe] (reading uncertain) [Seq. ID. No. 114: H-Aib-(CNB)-G-T(allo)-(α-Me-2F-Phe)-T(allo)-SD-Bip(OMe)-(APPA)]
39 | 81 | 89 | 96 | 99 | 5 | 3 | 1 | 0 | 0 | H[Aib][CNB]G[aThr][αMePhe(2-F)][aThr]SD[Bip(2'-Et-4'-OMe)][NMeAPPA] (reading uncertain) [Seq. ID. No. 130: H-Aib-(CNB)-G-T(allo)-(α-Me-2F-Phe)-T(allo)-SD-Bip(OMe)-((NMe)(APPA))]
55 | 88 | 92 | 99 | 99 | 2 | 0 | 0 | 0 | 0 | H[Aib][CNB]G[aThr][αMePhe(2-F)][aThr]SD[Bip(2'-Et-4'-OMe)][2F‑APPA] (reading uncertain) [Seq. ID. No. 116: H-Aib-(CNB)-G-T(allo)-(α-Me-2F-Phe)-T(allo)-SD-Bip(OMe)-(2F-APPA)]
60 | 92 | 98 | 99 | 99 | 9 | 6 | 5 | 3 | 0 | H[Aib][CNB]G[aThr][αMePhe(2-F)][aThr]S[NMeD][NMeBip(OMe)][NMeAPPA] (reading uncertain) [Seq. ID. No. 154: H-Aib-(CNB)-G-T(allo)-(α-Me-2F-Phe)-T(allo)-S-(NMe)D-((NMe)Bip(OMe))-((NMe)(APPA))]
86 | 99 | 99 | 99 | 99 | 5 | 2 | 0 | 0 | 0 | H[Aib][CNB]G[aThr][αMePhe(2-F)][aThr]S[NMeD][NMeBip(OMe)][NMe2F‑APPA] (reading uncertain)
55 | 89 | 93 | 99 | 99 | 5 | 3 | 0 | 0 | 0 | H[Aib][CNB]G[aThr][αMePhe(2-F)][aThr]SD[NMeBip(OMe)][NMe2F‑APPA] (reading uncertain) [Seq. ID. No. 144: H-Aib-(CNB)-G-T(allo)-(α-Me-2F-Phe)-T(allo)-SD-((NMe)Bip(OMe))-((NMe)(2F-APPA))]
96 | 99 | 99 | 99 | 99 | 19 | 17 | 15 | 14 | 12 | H[Aib][CNB]G[aThr][αMePhe(2-F)][aThr]SD[Bip(2'-Et-4'-OMe)][hhPhe] (reading uncertain; also: thioamide bond between residues 10 and 11) [Seq. ID. No. 166: H-Aib-(CNB)-G-T(allo)-(α-Me-2F-Phe)-T(allo)-SD-Bip(OMe)-(C═S)-(APPA)]
99 | 99 | 99 | 99 | 99 | 0 | 0 | 0 | 0 | 0 | H[Aib][CNB]GT[αMePhe(2-F)][aThr]SD[Bip(2'-Et-4'-OMe)][2F‑APPA] (reading uncertain) [Seq. ID. No. 120: H-Aib-(CNB)-GT-(α-Me-2F-Phe)-T(allo)-SD-Bip(OMe)-(2F-APPA)]
99 | 99 | 99 | 99 | 99 |  |  |  |  |  | H[Aib][Leu(5,5,5,5',5',5'-F6)]GT[αMePhe(2-F)]TSD[Bip(2'-Et-4'-OMe)][Nva(5-(3,5-Me2Ph))] [Seq. ID. No. 235: H-Aib-(Hfl)-GT-(α-Me-2F-Phe)-TSD-Bip(OMe)-(ADMP)]

Reference: patent US20120021972A1 (CADILA HEALTHCARE, published 2012)
